From the supplement of paper PMC9170038

Test system: MS2 coat protein
Assay: apparent KD of MS2 coat protein; designed switch direction (-1 OFF switch, 1 ON switch): -1; higher = weaker reporter binding
Outline: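 An oligonucleotide input, 200 uM small-molecule ligand, or no input was present during titration of SNAP-549-labelled MS2 coat protein, which was doubled from 0.7 or 1.5 nM to 3 µM. Designed RNA switches had been transcribed on Illumina chips by stalled E. coli RNA polymerase. Apparent KD per design is the median over clusters of curves fitted to normalised cluster fluorescence.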

[1] = input ligand: microRNA oligo, concentration not stated
[2] = Eterna round: R95, input ligand: FMN 200 uM
[3] = Eterna round: R95, input ligand: microRNA oligo, concentration not stated
[4] = Eterna round: R95, input ligand: none

| Sequence | apparent KD of MS2 coat protein (input ligand: FMN 200 uM) [nM] | apparent KD of MS2 coat protein (input ligand: none) [nM] | apparent KD of MS2 coat protein [1] [nM] | apparent KD of MS2 coat protein [2] [nM] | apparent KD of MS2 coat protein [3] [nM] | apparent KD of MS2 coat protein [4] [nM] |
| --- | --- | --- | --- | --- | --- | --- |
| GUAAACGAAGAGGAUAUUUGAUAUCAAAGCUUCAAAGAAGGCUUCACAUGAGGAUCACCCAUGUGAUCUUCAAA [Mat - Exclusion 6 - JL Mod - D18] (Eterna round: R97, puzzle: Exclusion 6) | 191 | 23.3 |  |  |  |  |
| GGAUCGAGUGUGAGGAUAUGCUGGUCCUUGGAUCAGCAGAAGGCACAUGAGGAUCACCCAUGUGAAGACGGUCC [Copy of R95 JL bmx4 3.16] (Eterna round: R97, puzzle: Brourd's mod of Exclusion 4) | 288 | 38.6 |  |  |  |  |
| GCAAGCUUUUGCUCGUCUUACAUGAGGAUCACCCAUGUUGGGUCCGGUCGCCGCGGCCGGGCCGGCCGGGCGCCGGG [-38, -65.5 kcal, A 10%] (Eterna round: R97, puzzle: Sensor, turn-off variant 1) | 31.2 | 33.3 |  |  |  |  |
| AAUUAGCAAGCGAGAUCUCACAUGAGGAUCACCCAUGUGCUCGUCUUAUAAGGUACUGUGACGAUAGUCACGGUACC [Mat - Sensor, turn-off var - Eli Mod - D39] (Eterna round: R97, puzzle: Sensor, turn-off variant 1) | 13.2 | 14.8 |  |  |  |  |
| GACUAAACACGAGGAUAUGCCUGGGAAGAACAGGCAGAAGGCGUGACAUGAGGAUCACCCAUGUAGCCGGGCUAUUCUCGUGUG [Orlaes] (Eterna round: R96, puzzle: Exclusion NG 1) | 35.4 | 29.3 | 20.8 |  |  |  |
| AGUUGGCGAGGAUAUACAUGAGGAUCACCCAUGUGAGAGAAUAAAGUGAGGAAGAAAAGUAGAAGGCGCUGACG [Mat - Exclusion 3 - Mod of Salish D7] (puzzle: Exclusion 3) |  |  |  | 61.1 | 52 | 53.8 |
| AGGUGCUUCUGGAGACAUGAGGAUCACCCAUGUCGAGUCAGCGAGGAUAUCGGUAAGACAUGUGAUGAGAAGGCGCAGACCGAU [Ex NG3 #52] (Eterna round: R96, puzzle: Exclusion NG 3) | 48.6 | 30.8 | 22.6 |  |  |  |
| UAGCAGCGAGGAUAUACAGACGGGUCCAGUACGUGUCUUGGACUUGAGGAUCACCCAAGUAGAAGGCGCCACAG [salish99_ex2_r4_604] (Eterna round: R97, puzzle: Exclusion 2) | 41.3 | 40 |  |  |  |  |
| GACUGCUGAGGAUAUACAUGAGGAUCACCCAUGUGCUUCAGCUAGGAGACUAGCAUUGGUAGAAGGUAGUAGUC [LRO-Excl3-03] (puzzle: Exclusion 3) |  |  |  |  | 10.3 |  |
| GAUAGAGAGCAGGAUAUCUUGGGUAAGUAUCAUAGAGAAGGGCUCACAUGAGGAUCACCCAUGUGGUCCAAGAU [Dibira] (puzzle: Exclusion 6) |  |  |  | 42.8 | 13 | 12.6 |
| UCUGUUGAAGGAUAUGCGUAACGAGUUACGGCUCAAGGUCUACAUGAGGAUCACCCAUGUAGAAGGUCAUCAGA [EX2 #71] (Eterna round: R97, puzzle: Exclusion 2) | 19.5 | 17.4 |  |  |  |  |
| GCCUUAUCCGUCAGGAUAUACAUUUUUUUUUUUUUGUAGAAGGGACAUGAGGAUCACCCAUGUACAUUACAUUG [alecazam17] (Eterna round: R97, puzzle: Brourd's mod of Exclusion 4) | 41 | 22.9 |  |  |  |  |
| GCGGAGAUCGUAUGAUAAUACAUGAGGAUCACCCAUGUGUAUACGAUGCAUGGUACCCGCCGCUUUGCUUGUCUUGC [Eternabot (L1) Solution 30] (Eterna round: R97, puzzle: Sensor, turn-off variant 1) | 16.4 | 16.7 |  |  |  |  |
| AUAAAGAACUCAGGAUAUUAGAGAAACGGACAUGAGGAUCACCCAUGUGCGCCUGAUGCCGAGAAUAAGAAGGGAGAAUAGAAA [Rearbi] (Eterna round: R96, puzzle: Exclusion NG 2) | 131 | 27.4 | 16.7 |  |  |  |
